Experimental data taken from paper PMC11146590.

Biological target: Oct4 C48S (purified) (Mus musculus, UniProt P20263 1-352, C178S)
Assay: EMSA

Chain of Oct4 C48S (purified) (P20263 whole entry C178S): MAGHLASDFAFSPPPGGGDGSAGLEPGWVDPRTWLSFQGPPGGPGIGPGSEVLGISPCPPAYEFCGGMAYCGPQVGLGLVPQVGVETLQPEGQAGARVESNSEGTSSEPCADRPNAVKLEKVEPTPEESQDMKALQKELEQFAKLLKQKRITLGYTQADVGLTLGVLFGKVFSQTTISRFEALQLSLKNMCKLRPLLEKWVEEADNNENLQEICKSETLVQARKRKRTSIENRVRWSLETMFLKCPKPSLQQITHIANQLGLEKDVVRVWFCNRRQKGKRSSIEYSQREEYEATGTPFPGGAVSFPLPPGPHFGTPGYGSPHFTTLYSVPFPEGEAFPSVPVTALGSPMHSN

B1: wild-type octamer probe (dsDNA)
DNA 1: TGTCGAATGCAAATCACT
DNA 2: AGTGATTTGCATTCGACA
B1: binds.
